Measured values reported in article PMC6798810.
Where a chain is given by its changes, count along the chain named.

What was measured:
Assay in all cases: EMSA
Conditions in all cases: EMSA: 15 ng/uL PCR product, 0.01-0.6 uM His-tagged protein, 45 min; MHQ 30 min, then DTT 30 min; buffer, pH and temperature not given (cited to ref. 44)
[1] = tested on: T1, MhqR (Staphylococcus aureus COL), ORF:0a4449b0
T1 sequence: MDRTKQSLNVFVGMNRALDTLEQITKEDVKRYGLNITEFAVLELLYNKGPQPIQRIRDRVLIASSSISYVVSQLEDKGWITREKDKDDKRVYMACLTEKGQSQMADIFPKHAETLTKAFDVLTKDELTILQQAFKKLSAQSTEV

[2] = tested on: T2, MhqR C95A C95A (Staphylococcus aureus COL), ORF:0a4449b0
T2 sequence: T1 sequence with C95A

[3] = tested on: MhqR (Staphylococcus aureus COL)
[4] = tested on: MhqR C95A (Staphylococcus aureus COL)

Substance: ACATATCAACTCCTATCATGATTGATTATAGTATTTCCCTATTCTATTTTAACTTAAACGAAGTCAAAGGTGCATGACAGTCATGTGACGACATTGCCACATCTATGTAGTCGTTTTTATTAAGCACAGTTTGAAATGAAGATGAAAACACGTATCTTGACATTAAATCTATTCAGTTATATAATTTATCCCTAAATCGAAATAAAATAAAAAAGTTGGTGATCATATGGATCGAACG (double strand) [PmhqRED m1]
- binding [1]: no binding

Substance: ACATATCAACTCCTATCATGATTGATTATAGTATTTCCCTATTCTATTTTAACTTAAACGAAGTCAAAGGTGCATGACAGTCATGTGACGACATTGCCACATCTATGTAGTCGTTTTTATTAAGCACAGTTTGAAATGAAGATGAAAACACGTATCTTGACATTAAATCTATTCAGTTATATAATTTATCTCGAAATAGGAATAAAATAAAAAAGTTGGTGATCATATGGATCGAACG (double strand) [PmhqRED m2]
- binding [1]: no binding

Substance: ACATATCAACTCCTATCATGATTGATTATAGTATTTCCCTATTCTATTTTAACTTAAACGAAGTCAAAGGTGCATGACAGTCATGTGACGACATTGCCACATCTATGTAGTCGTTTTTATTAAGCACAGTTTGAAATGAAGATGAAAACACGTATCTTGACATTAAATCTATTCAGTTATATAATTTATCTCGAAATCGAAATAAAATAAAAAAGTTGGTGATCATATGGATCGAACG (double strand) [PmhqRED promoter probe]
- Kd [1]: 7.38 nM
- Kd [2]: 14.2 nM

Substance: PmhqRED promoter probe
- Kd [3]: 7.38 nM
- Kd [4]: 14.2 nM
